Measured values taken from the Immune Epitope Database (IEDB).

Key:
HLA-A*03:01 [1] = test: IEDB peptide-MHC binding, purified MHC/competitive/fluorescence; filed as Kd, often an IC50 or EC50 that approximates it; ≥ and ≤ were set here for values at or beyond the usual limits of such assays
HLA-A*31:01 [2] = test: as above
HLA-A*03:01 [3] = test: IEDB peptide-MHC binding, purified MHC/direct/fluorescence; filed as Kd, often an IC50 or EC50 that approximates it; ≥ and ≤ were set here for values at or beyond the usual limits of such assays
HLA-A*11:01 [4] = test: as above
HLA-A*02:01 [5] = test: as above
HLA-C*03:03 = test: as above
HLA-A*69:01 [6] = test: as above; conditions: source organism: Marburg virus - Musoke, Kenya, 1980
HLA-A*02:01 [7] = test: IEDB peptide-MHC binding, purified MHC/competitive/fluorescence; filed as Kd, often an IC50 or EC50 that approximates it; ≥ and ≤ were set here for values at or beyond the usual limits of such assays
HLA-A*02:16 [8] = test: as above
HLA-B*51:01 [9] = test: as above; conditions: source organism: Entamoeba histolytica HM-1:IMSS
HLA-A*02:19 [10] = test: as above; conditions: source organism: Entamoeba histolytica HM-1:IMSS
HLA-A*68:02 = test: as above; conditions: source organism: Entamoeba histolytica HM-1:IMSS
HLA-A*02:12 [11] = test: as above; conditions: source organism: Entamoeba histolytica HM-1:IMSS
HLA-A*26:01 [12] = test: as above; conditions: source organism: Entamoeba histolytica HM-1:IMSS
HLA-A*69:01 [13] = test: as above
HLA-B*15:01 [14] = test: as above
HLA-B*46:01 [15] = test: as above; conditions: source organism: Entamoeba histolytica HM-1:IMSS
HLA-B*39:01 = test: as above; conditions: source organism: Entamoeba histolytica HM-1:IMSS
HLA-B*57:01 [16] = test: as above
HLA-B*27:03 = test: as above; conditions: source organism: Entamoeba histolytica HM-1:IMSS
HLA-A*02:11 = test: as above; conditions: source organism: Entamoeba histolytica HM-1:IMSS
HLA-A*23:01 = test: as above
HLA-B*48:01 = test: IEDB peptide-MHC binding, purified MHC/direct/fluorescence; filed as Kd, often an IC50 or EC50 that approximates it; ≥ and ≤ were set here for values at or beyond the usual limits of such assays; conditions: source organism: Camelpox virus M-96
HLA-B*15:17 = test: as above; conditions: source organism: Camelpox virus M-96
HLA-B*27:05 = test: as above; conditions: source organism: Camelpox virus M-96
HLA-B*58:01 = test: as above; conditions: source organism: Camelpox virus M-96
HLA-B*08:02 = test: as above; conditions: source organism: Variola virus
HLA-B*46:01 [17] = test: as above
HLA-B*40:01 = test: as above; conditions: source organism: Camelpox virus M-96
HLA-A*01:01 = test: as above; conditions: source organism: Camelpox virus M-96
HLA-A*31:01 [18] = test: as above; conditions: source organism: Camelpox virus M-96
HLA-A*11:01 [19] = test: IEDB peptide-MHC binding, purified MHC/competitive/fluorescence; filed as Kd, often an IC50 or EC50 that approximates it; ≥ and ≤ were set here for values at or beyond the usual limits of such assays; conditions: source organism: Vaccinia virus Copenhagen
HLA-B*18:01 = test: IEDB peptide-MHC binding, purified MHC/direct/fluorescence; filed as Kd, often an IC50 or EC50 that approximates it; ≥ and ≤ were set here for values at or beyond the usual limits of such assays; conditions: source organism: Brucella suis 1330
HLA-B*51:01 [20] = test: as above; conditions: source organism: Brucella suis 1330
HLA-A*02:19 [21] = test: as above; conditions: source organism: Brucella suis 1330
HLA-A*02:16 [22] = test: as above; conditions: source organism: Brucella suis 1330
HLA-A*02:12 [23] = test: as above; conditions: source organism: Brucella suis 1330
HLA-A*26:01 [24] = test: as above; conditions: source organism: Brucella suis 1330
HLA-B*15:01 [25] = test: as above; conditions: source organism: Brucella suis 1330
HLA-B*57:01 [26] = test: as above; conditions: source organism: Brucella suis 1330
[27] = source organism: Escherichia coli 536
[28] = source organism: Coxiella burnetii RSA 493
[29] = source organism: Entamoeba histolytica HM-1:IMSS
[30] = source organism: Mycobacterium tuberculosis
[31] = source organism: Mycobacterium tuberculosis variant bovis BCG str. Pasteur 1173P2
[32] = source organism: Influenza A virus (A/Goose/Hong Kong/385.3/2000(H5N1))
[33] = source organism: Giardia lamblia ATCC 50803
[34] = source organism: Camelpox virus M-96
[35] = source organism: Vaccinia virus Copenhagen
[36] = source organism: Brucella suis 1330

TVKRYLQAK showed a Kd (HLA-A*03:01 [1]; [27]) of 2840 nM and a Kd (HLA-A*31:01 [2]; [27]) of 55.7 nM.
With GMSSRAIAR the Kd (HLA-A*03:01 [1]; [27]) was 15 nM and the Kd (HLA-A*31:01 [2]; [27]) was 8.5 nM.
For DVNGIRKPK, the Kd (HLA-A*03:01 [3]; source organism: Amur virus) was at least 20000 nM, the Kd (HLA-A*11:01 [4]; source organism: Amur virus) was at least 20000 nM and the Kd (HLA-A*31:01 [2]; source organism: Orthohantavirus dobravaense) was at least 20000 nM.
Sequence WLDSVIQYL has a Kd (HLA-A*02:01 [5]; source organism: Marburg virus - Musoke, Kenya, 1980) of 143 nM, a Kd (HLA-C*03:03; source organism: Orthomarburgvirus marburgense) of 240 nM and a Kd (HLA-A*69:01 [6]) of 963 nM.
With DAMENPLSL the Kd (HLA-C*03:03; source organism: Leishmania donovani) was 625 nM.
For FLFLYWPHY, the Kd (HLA-A*02:01 [7]; [28]) was 628 nM and the Kd (HLA-A*02:16 [8]; [28]) was 1740 nM.
Sequence WAKLLKQKW has a Kd (HLA-B*51:01 [9]) of at least 20000 nM, a Kd (HLA-A*02:19 [10]) of at least 20000 nM and a Kd (HLA-A*02:01 [7]; [29]) of at least 20000 nM. For the same sequence, the Kd (HLA-A*02:16 [8]; [29]) was at least 20000 nM, the Kd (HLA-A*68:02) was at least 20000 nM and the Kd (HLA-A*03:01 [1]; [29]) was at least 20000 nM. For the same sequence, the Kd (HLA-A*02:12 [11]) was at least 20000 nM, the Kd (HLA-A*26:01 [12]) was at least 20000 nM and the Kd (HLA-A*69:01 [13]; [29]) was at least 20000 nM. For the same sequence, the Kd (HLA-B*15:01 [14]; [29]) was at least 20000 nM, the Kd (HLA-B*46:01 [15]) was at least 20000 nM and the Kd (HLA-B*39:01) was at least 20000 nM. For the same sequence, the Kd (HLA-B*57:01 [16]; [29]) was 227 nM, the Kd (HLA-B*27:03) was at least 20000 nM and the Kd (HLA-A*02:11) was at least 20000 nM.
In the case of RLNFFTPTK, the Kd (HLA-A*03:01 [3]; [30]) is reported as 5.9 nM, the Kd (HLA-A*11:01 [4]; [30]) is reported as 3.1 nM and the Kd (HLA-A*31:01 [2]; [31]) is reported as 2.3 nM.
With IIAARNIVR the Kd (HLA-A*03:01 [3]; [32]) was 1540 nM, the Kd (HLA-A*11:01 [4]; [32]) was at least 20000 nM and the Kd (HLA-A*31:01 [2]; source organism: Influenza A virus H3N2) was 3.62 nM.
With SSFQDILLR the Kd (HLA-A*03:01 [3]; source organism: Influenza A virus (A/Memphis/14/1998(H3N2))) was at least 20000 nM and the Kd (HLA-A*31:01 [2]; source organism: Influenza A virus (A/X-31(H3N2))) was 309 nM.
For RVHSFFIQY, the Kd (HLA-A*03:01 [3]; [33]) was 68.1 nM, the Kd (HLA-A*11:01 [4]; [33]) was at most 1 nM and the Kd (HLA-A*31:01 [2]; [33]) was 161 nM.
TFYAEFPKK gave a Kd (HLA-A*23:01; source organism: Escherichia coli F11) of 66.2 nM.
With FTENGPWMY the Kd (HLA-B*48:01) was at least 20000 nM, the Kd (HLA-A*02:01 [5]; [34]) was at least 20000 nM and the Kd (HLA-B*15:17) was 5.2 nM. It also gave a Kd (HLA-A*03:01 [3]; [34]) of at least 20000 nM, a Kd (HLA-B*27:05) of at least 20000 nM and a Kd (HLA-B*58:01) of at least 20000 nM. It also gave a Kd (HLA-B*08:02) of at least 20000 nM, a Kd (HLA-B*46:01 [17]; [34]) of at least 20000 nM and a Kd (HLA-B*40:01) of at least 20000 nM. It also gave a Kd (HLA-A*01:01) of 2.7 nM, a Kd (HLA-A*31:01 [18]) of at least 20000 nM and a Kd (HLA-A*69:01 [13]; [35]) of at least 20000 nM. The Kd (HLA-B*15:01 [14]; [35]) was at least 20000 nM, the Kd (HLA-B*57:01 [16]; [35]) was at least 20000 nM and the Kd (HLA-A*11:01 [19]) was at least 20000 nM.
VAYHFHEPL gave a Kd (HLA-C*03:03; [31]) of at most 1 nM.
In the case of WYMRALYQK, the Kd (HLA-A*23:01; [29]) is reported as 388 nM.
MRIGSMATL was tested, and the Kd (HLA-B*18:01) was at least 20000 nM, the Kd (HLA-B*51:01 [20]) was at least 20000 nM and the Kd (HLA-A*02:19 [21]) was at least 20000 nM. For the same sequence, the Kd (HLA-A*02:01 [5]; [36]) was at least 20000 nM, the Kd (HLA-A*02:16 [22]) was at least 20000 nM and the Kd (HLA-A*03:01 [3]; [36]) was at least 20000 nM. It also gave a Kd (HLA-A*02:12 [23]) of at least 20000 nM, a Kd (HLA-A*26:01 [24]) of at least 20000 nM and a Kd (HLA-B*15:01 [25]) of at least 20000 nM. The Kd (HLA-B*46:01 [17]; [36]) was at least 20000 nM and the Kd (HLA-B*57:01 [26]) was at least 20000 nM.
